B1: SPATS1 (parent)
chain: GRKKYDIDPRNGIPKLTPGDNPYM

Variants of: B1
Test: protein stability index of a GFP-peptide fusion (GPS, HEK-293T) (PSI 1-6); higher = more stable
Conditions: c terminus: a fixed tail appended
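Also: lentivirally expressed fusions sorted by FACS into six bins by GFP to DsRed ratio, PSI derived from sequencing read proportions per bin multiplied by bin number.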

Q: Which protein stability index does the source give for GRKKYDIDPRDGIPKLTPGDNPYM here?
A: 3.87

Q: For GRKKYDIDPRLGIPKLTPGDNPYM, which protein stability index is on record?
A: 3.06

Q: With GRKKYDIDPRCGIPKLTPGDNPYM as the variant, how does the protein stability index read?
A: 2.77

Q: With GRKKYDIDPRHGIPKLTPGDNPYM as the variant, how does the protein stability index read?
A: 3.54

Q: For GRKKYDIDPRGGIPKLTPGDNPYM, which protein stability index is on record?
A: 3.53

Q: For GRKKYDIDPRWGIPKLTPGDNPYM, which protein stability index is on record?
A: 2.48

Q: Which protein stability index does the source give for GRKKYDIDPRMGIPKLTPGDNPYM here?
A: 3.17

Q: With GRKKYDIDPRFGIPKLTPGDNPYM as the variant, how does the protein stability index read?
A: 3.34

Q: Which protein stability index does the source give for GRKKYDIDPRQGIPKLTPGDNPYM here?
A: 3.41

Q: With GRKKYDIDPREGIPKLTPGDNPYM as the variant, how does the protein stability index read?
A: 3.82

Q: For GRKKYDIDPRKGIPKLTPGDNPYM, which protein stability index is on record?
A: 3.59

Q: With GRKKYDIDPRRGIPKLTPGDNPYM as the variant, how does the protein stability index read?
A: 3.28

Q: With GRKKYDIDPRYGIPKLTPGDNPYM as the variant, how does the protein stability index read?
A: 4.13

Q: With GRKKYDIDPRIGIPKLTPGDNPYM as the variant, how does the protein stability index read?
A: 3.22

Q: With GRKKYDIDPRSGIPKLTPGDNPYM as the variant, how does the protein stability index read?
A: 3.6

Q: Which protein stability index does the source give for GRKKYDIDPRVGIPKLTPGDNPYM here?
A: 3.28

Q: Which protein stability index does the source give for GRKKYDIDPRPGIPKLTPGDNPYM here?
A: 3.8

Q: With GRKKYDIDPRAGIPKLTPGDNPYM as the variant, how does the protein stability index read?
A: 3.05

Q: Which protein stability index does the source give for GRKKYDIDPRTGIPKLTPGDNPYM here?
A: 3.46

Q: With GRKKYPIDPRNGIPKLTPGDNPYM as the variant, how does the protein stability index read?
A: 3.49

Q: For GRKKYVIDPRNGIPKLTPGDNPYM, which protein stability index is on record?
A: 2.52

Q: For GRKKYWIDPRNGIPKLTPGDNPYM, which protein stability index is on record?
A: 2.38

Q: With GRKKYYIDPRNGIPKLTPGDNPYM as the variant, how does the protein stability index read?
A: 3.12

Q: Which protein stability index does the source give for GRKKYLIDPRNGIPKLTPGDNPYM here?
A: 2.84

Q: For GRKKYNIDPRNGIPKLTPGDNPYM, which protein stability index is on record?
A: 3.36

Q: With GRKKYMIDPRNGIPKLTPGDNPYM as the variant, how does the protein stability index read?
A: 3.01

Q: For GRKKYGIDPRNGIPKLTPGDNPYM, which protein stability index is on record?
A: 3.51

Q: For GRKKYQIDPRNGIPKLTPGDNPYM, which protein stability index is on record?
A: 2.94

Q: With GRKKYTIDPRNGIPKLTPGDNPYM as the variant, how does the protein stability index read?
A: 3.16

Q: With GRKKYAIDPRNGIPKLTPGDNPYM as the variant, how does the protein stability index read?
A: 3.26

Q: Which protein stability index does the source give for GRKKYRIDPRNGIPKLTPGDNPYM here?
A: 3.11

Q: With GRKKYFIDPRNGIPKLTPGDNPYM as the variant, how does the protein stability index read?
A: 2.51

Q: With GRKKYSIDPRNGIPKLTPGDNPYM as the variant, how does the protein stability index read?
A: 3.4

Q: With GRKKYIIDPRNGIPKLTPGDNPYM as the variant, how does the protein stability index read?
A: 2.57

Q: For GRKKYKIDPRNGIPKLTPGDNPYM, which protein stability index is on record?
A: 3.33

Q: With GRKKYEIDPRNGIPKLTPGDNPYM as the variant, how does the protein stability index read?
A: 3.4

Q: Which protein stability index does the source give for GRKKYHIDPRNGIPKLTPGDNPYM here?
A: 3.35

Q: With GRKKYCIDPRNGIPKLTPGDNPYM as the variant, how does the protein stability index read?
A: 2.89

Q: Which protein stability index does the source give for GRKKYDIDPRNFIPKLTPGDNPYM here?
A: 3.34

Q: Which protein stability index does the source give for GRKKYDIDPRNQIPKLTPGDNPYM here?
A: 3.72

Q: For GRKKYDIDPRNWIPKLTPGDNPYM, which protein stability index is on record?
A: 2.83

Q: For GRKKYDIDPRNHIPKLTPGDNPYM, which protein stability index is on record?
A: 3.32

Q: Which protein stability index does the source give for GRKKYDIDPRNIIPKLTPGDNPYM here?
A: 2.77

Q: Which protein stability index does the source give for GRKKYDIDPRNAIPKLTPGDNPYM here?
A: 3.66

Q: Which protein stability index does the source give for GRKKYDIDPRNCIPKLTPGDNPYM here?
A: 2.48

Q: With GRKKYDIDPRNDIPKLTPGDNPYM as the variant, how does the protein stability index read?
A: 3.3

Q: Which protein stability index does the source give for GRKKYDIDPRNNIPKLTPGDNPYM here?
A: 3.21

Q: For GRKKYDIDPRNRIPKLTPGDNPYM, which protein stability index is on record?
A: 3.42

Q: For GRKKYDIDPRNVIPKLTPGDNPYM, which protein stability index is on record?
A: 3.46

Q: With GRKKYDIDPRNYIPKLTPGDNPYM as the variant, how does the protein stability index read?
A: 2.8

Q: With GRKKYDIDPRNTIPKLTPGDNPYM as the variant, how does the protein stability index read?
A: 3.22

Q: With GRKKYDIDPRNPIPKLTPGDNPYM as the variant, how does the protein stability index read?
A: 3.9

Q: With GRKKYDIDPRNSIPKLTPGDNPYM as the variant, how does the protein stability index read?
A: 3.57

Q: For GRKKYDIDPRNEIPKLTPGDNPYM, which protein stability index is on record?
A: 3.97

Q: With GRKKYDIDPRNKIPKLTPGDNPYM as the variant, how does the protein stability index read?
A: 3.58

Q: Which protein stability index does the source give for GRKKYDIDPRNMIPKLTPGDNPYM here?
A: 3.08

Q: With GRKKYDIDPRNLIPKLTPGDNPYM as the variant, how does the protein stability index read?
A: 3.09

Q: For GRYKYDIDPRNGIPKLTPGDNPYM, which protein stability index is on record?
A: 2.77

Q: With GRKKYDIDSRNGIPKLTPGDNPYM as the variant, how does the protein stability index read?
A: 3.85

Q: Which protein stability index does the source give for GRKKYDIDIRNGIPKLTPGDNPYM here?
A: 3.69

Q: Which protein stability index does the source give for GRKKYDIDWRNGIPKLTPGDNPYM here?
A: 2.52

Q: For GRKKYDIDRRNGIPKLTPGDNPYM, which protein stability index is on record?
A: 3.74

Q: With GRKKYDIDDRNGIPKLTPGDNPYM as the variant, how does the protein stability index read?
A: 3.99

Q: With GRKKYDIDCRNGIPKLTPGDNPYM as the variant, how does the protein stability index read?
A: 3.72

Q: Which protein stability index does the source give for GRKKYDIDGRNGIPKLTPGDNPYM here?
A: 3.52

Q: For GRKKYDIDARNGIPKLTPGDNPYM, which protein stability index is on record?
A: 3.44

Q: With GRKKYDIDQRNGIPKLTPGDNPYM as the variant, how does the protein stability index read?
A: 3.67

Q: For GRKKYDIDHRNGIPKLTPGDNPYM, which protein stability index is on record?
A: 3.79

Q: With GRKKYDIDYRNGIPKLTPGDNPYM as the variant, how does the protein stability index read?
A: 2.99

Q: With GRKKYDIDNRNGIPKLTPGDNPYM as the variant, how does the protein stability index read?
A: 3.49

Q: With GRKKYDIDLRNGIPKLTPGDNPYM as the variant, how does the protein stability index read?
A: 3.24

Q: Which protein stability index does the source give for GRKKYDIDKRNGIPKLTPGDNPYM here?
A: 3.27

Q: Which protein stability index does the source give for GRKKYDIDVRNGIPKLTPGDNPYM here?
A: 3.36

Q: Which protein stability index does the source give for GRKKYDIDMRNGIPKLTPGDNPYM here?
A: 3.28

Q: With GRKKYDIDFRNGIPKLTPGDNPYM as the variant, how does the protein stability index read?
A: 2.8

Q: For GRKKYDIDERNGIPKLTPGDNPYM, which protein stability index is on record?
A: 4.19

Q: For GRKKYDIDTRNGIPKLTPGDNPYM, which protein stability index is on record?
A: 3.62

Q: With GRKKRDIDPRNGIPKLTPGDNPYM as the variant, how does the protein stability index read?
A: 4.07

Q: For GRKKDDIDPRNGIPKLTPGDNPYM, which protein stability index is on record?
A: 4.64

Q: With GRKKFDIDPRNGIPKLTPGDNPYM as the variant, how does the protein stability index read?
A: 3.51

Q: For GRKKNDIDPRNGIPKLTPGDNPYM, which protein stability index is on record?
A: 3.93

Q: With GRKKGDIDPRNGIPKLTPGDNPYM as the variant, how does the protein stability index read?
A: 4.44

Q: Which protein stability index does the source give for GRKKIDIDPRNGIPKLTPGDNPYM here?
A: 3.4

Q: Which protein stability index does the source give for GRKKMDIDPRNGIPKLTPGDNPYM here?
A: 3.65

Q: Which protein stability index does the source give for GRKKPDIDPRNGIPKLTPGDNPYM here?
A: 3.38

Q: With GRKKWDIDPRNGIPKLTPGDNPYM as the variant, how does the protein stability index read?
A: 2.92

Q: With GRKKEDIDPRNGIPKLTPGDNPYM as the variant, how does the protein stability index read?
A: 4.86

Q: With GRKKCDIDPRNGIPKLTPGDNPYM as the variant, how does the protein stability index read?
A: 4.08

Q: Which protein stability index does the source give for GRKKKDIDPRNGIPKLTPGDNPYM here?
A: 4.23

Q: For GRKKVDIDPRNGIPKLTPGDNPYM, which protein stability index is on record?
A: 4.04

Q: For GRKKHDIDPRNGIPKLTPGDNPYM, which protein stability index is on record?
A: 3.88

Q: With GRKKTDIDPRNGIPKLTPGDNPYM as the variant, how does the protein stability index read?
A: 4.11

Q: For GRKKADIDPRNGIPKLTPGDNPYM, which protein stability index is on record?
A: 4.14

Q: For GRKKSDIDPRNGIPKLTPGDNPYM, which protein stability index is on record?
A: 4.36
